# Reference: PMC10786891, “Massively parallel profiling of RNA-targeting CRISPR-Cas13d”
# Residue numbers refer to the chain shown, from its start. Numbers in names are those of the source.
# T1: EsCas13d, nuclease-dead (Eubacterium siraeum, UniProt B0MS50, R295A;H300A;R849A;H854A)
# T1 sequence: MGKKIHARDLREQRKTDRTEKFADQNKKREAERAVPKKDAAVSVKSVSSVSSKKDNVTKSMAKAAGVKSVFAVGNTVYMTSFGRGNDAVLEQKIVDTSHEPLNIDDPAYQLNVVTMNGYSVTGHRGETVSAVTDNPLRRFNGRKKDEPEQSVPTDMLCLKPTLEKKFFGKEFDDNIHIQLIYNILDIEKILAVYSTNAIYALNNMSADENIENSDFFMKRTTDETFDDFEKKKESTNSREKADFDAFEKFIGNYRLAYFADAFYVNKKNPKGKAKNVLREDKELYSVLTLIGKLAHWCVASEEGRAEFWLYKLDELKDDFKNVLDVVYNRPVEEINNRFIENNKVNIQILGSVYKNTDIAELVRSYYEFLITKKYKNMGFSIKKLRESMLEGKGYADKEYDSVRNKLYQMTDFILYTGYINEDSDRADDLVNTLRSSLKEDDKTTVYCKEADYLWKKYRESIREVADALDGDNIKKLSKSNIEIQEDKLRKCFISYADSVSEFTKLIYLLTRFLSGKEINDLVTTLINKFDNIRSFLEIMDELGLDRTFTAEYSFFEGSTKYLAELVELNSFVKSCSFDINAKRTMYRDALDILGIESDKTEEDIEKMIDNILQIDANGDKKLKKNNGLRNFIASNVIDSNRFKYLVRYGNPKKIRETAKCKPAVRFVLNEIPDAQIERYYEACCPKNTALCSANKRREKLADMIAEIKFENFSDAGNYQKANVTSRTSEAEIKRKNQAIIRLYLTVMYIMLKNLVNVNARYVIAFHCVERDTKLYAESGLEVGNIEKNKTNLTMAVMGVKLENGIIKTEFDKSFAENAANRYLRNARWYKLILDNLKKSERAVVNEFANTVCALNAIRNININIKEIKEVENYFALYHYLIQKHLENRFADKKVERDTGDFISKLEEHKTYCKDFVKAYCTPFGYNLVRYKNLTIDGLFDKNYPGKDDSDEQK
# B1: target 1 insU 3' of 14,insA 3' of 11 (mixed)
# RNA 1: CACCCGUGCAAAAAUGCAGGGGUCUAAAACUGAGCGGAUAACCUCUCUAUGG
# RNA 2: GGGAAUGGAUCCACAUCUACGAAUUCGUACCAUAGAGAUGGUAUAUCCGCUCACCGAGAUCGGAAGAGCACACGU
# B2: target 1 C4A,A18C (mixed)
# RNA 1: B1 RNA 1
# RNA 2: GGGAAUGGAUCCACAUCUACGAAUUCGUACCAUCGAGAGGUUAUCCGAUCACCGAGAUCGGAAGAGCACACGU
# B3: target 1 G15C,C21U (mixed)
# RNA 1: B1 RNA 1
# RNA 2: B2 RNA 2 with C31U, C34A, G37C, A48C
# B4: target 1 del14,del16 (mixed)
# RNA 1: B1 RNA 1
# RNA 2: GGGAAUGGAUCCACAUCUACGAAUUCGUACCAUAGGGGUUAUCCGCUCACCGAGAUCGGAAGAGCACACGU
# B5: target 1 insG 3' of 20,insA 3' of 8 (mixed)
# RNA 1: B1 RNA 1
# RNA 2: GGGAAUGGAUCCACAUCUACGAAUUCGUACCAGUAGAGAGGUUAUACCGCUCACCGAGAUCGGAAGAGCACACGU
# B6: target 1 insU 3' of 20,insG 3' of 18 (mixed)
# RNA 1: B1 RNA 1
# RNA 2: B1 RNA 2 with A34U, G35A, A36G, U39G, G40A, U42G, A43U
# B7: target 1 insG 3' of 8,insA 3' of 3 (mixed)
# RNA 1: B1 RNA 1
# RNA 2: B1 RNA 2 with U39G, G41U, A45G, U46C, C48G, G49C, C50U, U51A
# B8: target 1 insA 3' of 11,insU 3' of 5 (mixed)
# RNA 1: B1 RNA 1
# RNA 2: B1 RNA 2 with U39G, G41U, U42A, A43U, U44A, A45U, U46C, C48G, G49U
# B9: target 1 insG 3' of 10 (mixed)
# RNA 1: B1 RNA 1
# RNA 2: GGGAAUGGAUCCACAUCUACGAAUUCGUACCAUAGAGAGGUUGAUCCGCUCACCGAGAUCGGAAGAGCACACGU
# B10: target 1 insU 3' of 21,insA 3' of 21 (mixed)
# RNA 1: B1 RNA 1
# RNA 2: B1 RNA 2 with A32U, U33A, G35U, U39G, G40A, U42G, A43U
# B11: target 1 C2G,A16G (mixed)
# RNA 1: B1 RNA 1
# RNA 2: B2 RNA 2 with C34A, A36G, A48C, C50G
# B12: target 1 C6U,U19G (mixed)
# RNA 1: B1 RNA 1
# RNA 2: B2 RNA 2 with U33G, C34A, C46U, A48C
# B13: target 1 insG 3' of 9,insG 3' of 9 (mixed)
# RNA 1: B1 RNA 1
# RNA 2: B1 RNA 2 with U39G, G41U, U44G, A45G
# B14: target 1 complement block 2-14 (mixed)
# RNA 1: B1 RNA 1
# RNA 2: GGGAAUGGAUCCACAUCUACGAAUUCGUACCAUAGAGUCCAAUAGGCGAGACCGAGAUCGGAAGAGCACACGU
# B15: target 1 insA 3' of 19 (mixed)
# RNA 1: B1 RNA 1
# RNA 2: B9 RNA 2 with G35A, A36G, G37A, A38G, G39A, U41G, G43U
# Molecular target: T1, EsCas13d, nuclease-dead
# Assay: crRNA (strand 1, pre-loaded); Mg2+; 40 mM Tris-HCl pH 7.5, 150 mM NaCl, 6 mM MgCl2, 1 mM DTT, 0.1% Tween-20, 0.2 mg/ml BSA; 25 C; 10 min per concentration, then washed
# Conditions: tags: His6-TwinStrep-SUMO cleaved; N-terminal SNAP kept (SNAP-Surface 488); label: 3' end held by stalled T7 RNA polymerase
row,Binder,Kd
1,B1,54 ± 10 nM
2,B2,63 ± 22 nM
3,B3,9.4 ± 0.7 nM
4,B4,84 ± 17 nM
5,B5,60 ± 7 nM
6,B6,99 ± 21 nM
7,B7,8.3 ± 0.5 nM
8,B8,18.7 ± 1.5 nM
9,B9,23 ± 1.7 nM
10,B10,22.4 ± 3.3 nM
11,B11,33.1 ± 1.6 nM
12,B12,48 ± 11 nM
13,B13,16.2 ± 0.9 nM
14,B14,71 ± 17 nM
15,B15,15.9 ± 0.7 nM
